The text below walks through data of article PMC2749851, “Interaction of ZEB and Histone Deacetylase with the PLDLS-binding cleft region of monomeric C-terminal Binding Protein 2” (BMC Molecular Biology, 2009).

The target in the assay is T1, H6-CtBP2 (UniProt P56545 1-445).
T1 construct: also called H6-tagged wt CtBP2; wt CtBP2; source: purified
Briefly: pull-down; GST fusion proteins charged on glutathione-agarose beads, incubated with purified H6-CtBP2 or H6-RR-CtBP2 (~0.1 μg) in 200 μl of 25 mM Tris-HCl pH 7.5, 0.25 M NaCl, 0.5% Triton X-100, 0.5 mM DTT for 1 h at 4°C; Western blot with the CtBP2 antibody. Conditions: both partners purified. (In general: Immunoblotting shows a protein as a band on a membrane.)

B1: GST-ZEB101 (domain or fragment, UniProt P37275-1 680-780, looked up)
chain: PLKMTNSPVLPVGSTTNGSRSSTPSPSPLNLSSSRNTQGYLYTAEGAQEEPQVEPLDLSLPKQQGELLERSTITSVYQNSVYSVQEEPLNLSCAKKEPQKD
notes: ZEB (ZEB1), GenBank NM_030751, aa 680-780; transferred from pGFP-ZEB101 to a pGST vector at XhoI/EcoRI; also called wt ZEB101; source: induced with 1 mM IPTG; lysate loaded onto glutathione-agarose beads
For the molecule B1, the binding result was “binds”.
